Assay [1] deals with T1, human wildtype KRas4B 1-169 (C-terminal truncated) (human, UniProt P01116-2 1-169). The experiment in a line: BLI; 1:2 bivalent model. (In general: BLI is a label-free optical method that tracks binding on a fibre tip over time.)
Assay [2] concerns the target T1, human wildtype KRas4B 1-169 (C-terminal …). The assay can be described thus: BLI; 2:1 heterogeneous model, binding type 2 (69-99 %).

Results on one molecule are retold here after publication PMC10576006 (2023).

B1: GST-Rgl2^RA (Ras association domain of human Rgl2, residues 643-740, fused with GST) (domain or fragment)
chain: GPGASDCRIIRVQMELGEDGSVYKSILVTSQDKAPSVISRVLKKNNRDSAVASEYELVQLLPGERELTIPASANVFYAMDGASHDFLLRQRRRSSTAT
For B1, the values for the Kd in assay [1] and in assay [2] were 48.2 µM and 1.62 µM, respectively.
